EP4578463A1, “ENDO-180 TARGETED ANTIBODY-DRUG CONJUGATES” (Oncomatryx Biopharma, S.L., priority 2023, dated 2025)

Key:
[1] = target: T1, Endo180 on cells (Endo180-expressing HT1080-WT cells; Endo180-transfected HEK293-Endo180 cells) (UniProt Q9UBG0 31-1479); assay: flow cytometry on HT1080-WT cells
T1 construct: whole, on cells; One molecule is used for the endogenous protein on HT1080-WT and the transfected protein on HEK293-Endo180; also called uPARAP
T1 sequence (looked up): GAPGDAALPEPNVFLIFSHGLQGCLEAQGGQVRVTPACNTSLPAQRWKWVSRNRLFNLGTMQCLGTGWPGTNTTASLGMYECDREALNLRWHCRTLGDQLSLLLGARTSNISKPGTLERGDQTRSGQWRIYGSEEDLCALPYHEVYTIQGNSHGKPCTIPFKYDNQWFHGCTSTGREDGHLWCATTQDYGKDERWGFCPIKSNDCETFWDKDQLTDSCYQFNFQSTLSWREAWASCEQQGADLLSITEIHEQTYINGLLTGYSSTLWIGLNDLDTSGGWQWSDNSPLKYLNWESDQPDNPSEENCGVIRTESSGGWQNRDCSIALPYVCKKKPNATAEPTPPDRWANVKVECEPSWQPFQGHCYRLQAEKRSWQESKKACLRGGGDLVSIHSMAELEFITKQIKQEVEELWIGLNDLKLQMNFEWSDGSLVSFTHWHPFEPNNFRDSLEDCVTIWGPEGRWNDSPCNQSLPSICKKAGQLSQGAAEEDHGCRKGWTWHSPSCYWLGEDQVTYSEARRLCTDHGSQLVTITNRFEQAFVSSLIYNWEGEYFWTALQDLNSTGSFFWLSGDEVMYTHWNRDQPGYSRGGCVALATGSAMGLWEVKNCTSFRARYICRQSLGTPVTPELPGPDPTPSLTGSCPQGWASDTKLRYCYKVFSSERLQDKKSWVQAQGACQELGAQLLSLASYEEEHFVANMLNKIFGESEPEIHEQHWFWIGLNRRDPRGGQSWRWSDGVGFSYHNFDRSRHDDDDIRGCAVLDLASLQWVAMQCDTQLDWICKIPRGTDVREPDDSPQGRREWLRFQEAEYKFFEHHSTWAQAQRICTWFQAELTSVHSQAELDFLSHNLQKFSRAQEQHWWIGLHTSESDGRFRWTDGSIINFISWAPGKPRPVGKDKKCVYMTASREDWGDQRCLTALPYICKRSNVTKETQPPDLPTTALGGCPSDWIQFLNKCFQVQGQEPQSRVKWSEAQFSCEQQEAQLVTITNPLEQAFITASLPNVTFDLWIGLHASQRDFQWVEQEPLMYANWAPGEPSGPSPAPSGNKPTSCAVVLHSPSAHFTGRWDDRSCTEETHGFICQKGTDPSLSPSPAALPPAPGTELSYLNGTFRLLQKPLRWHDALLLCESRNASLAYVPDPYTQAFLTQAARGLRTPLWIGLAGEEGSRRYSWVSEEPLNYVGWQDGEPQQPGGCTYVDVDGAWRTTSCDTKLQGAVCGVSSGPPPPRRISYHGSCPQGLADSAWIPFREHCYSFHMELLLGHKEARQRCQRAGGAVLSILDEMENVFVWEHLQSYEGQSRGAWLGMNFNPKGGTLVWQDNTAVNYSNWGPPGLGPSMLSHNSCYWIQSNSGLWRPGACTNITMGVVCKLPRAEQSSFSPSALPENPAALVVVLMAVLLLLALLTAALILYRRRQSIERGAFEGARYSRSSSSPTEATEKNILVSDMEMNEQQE

[2] = target: T2, human Endo180-moFc domains I-IV (aa 31-513) (human, UniProt Q9UBG0 31-513); assay: ELISA, immobilized huEndo180-moFc
T2 construct: also called huEndo180 (DI-IV); huEndo180-moFc DI-IV; not shown: murine Fc domain
T2 sequence: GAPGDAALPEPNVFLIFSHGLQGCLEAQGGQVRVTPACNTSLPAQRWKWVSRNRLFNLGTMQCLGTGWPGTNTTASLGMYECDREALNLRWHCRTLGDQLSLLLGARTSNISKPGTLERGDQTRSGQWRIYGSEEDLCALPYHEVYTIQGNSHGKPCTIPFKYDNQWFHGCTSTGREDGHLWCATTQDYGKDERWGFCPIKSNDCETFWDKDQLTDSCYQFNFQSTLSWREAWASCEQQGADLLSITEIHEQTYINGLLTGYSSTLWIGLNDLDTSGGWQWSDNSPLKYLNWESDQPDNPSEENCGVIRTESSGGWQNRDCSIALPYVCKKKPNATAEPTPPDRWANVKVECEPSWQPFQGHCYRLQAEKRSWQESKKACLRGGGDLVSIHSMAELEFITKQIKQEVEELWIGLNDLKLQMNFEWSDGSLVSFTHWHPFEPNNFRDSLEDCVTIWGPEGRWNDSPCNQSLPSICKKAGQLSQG

[3] = target: T3, human Endo180-moFc domains I-III (aa 31-370) (human, UniProt Q9UBG0 31-370); assay: ELISA, immobilized huEndo180-moFc
T3 construct: also called huEndo180 (DI-III); huEndo180-moFc DI-III; not shown: murine Fc domain
T3 sequence: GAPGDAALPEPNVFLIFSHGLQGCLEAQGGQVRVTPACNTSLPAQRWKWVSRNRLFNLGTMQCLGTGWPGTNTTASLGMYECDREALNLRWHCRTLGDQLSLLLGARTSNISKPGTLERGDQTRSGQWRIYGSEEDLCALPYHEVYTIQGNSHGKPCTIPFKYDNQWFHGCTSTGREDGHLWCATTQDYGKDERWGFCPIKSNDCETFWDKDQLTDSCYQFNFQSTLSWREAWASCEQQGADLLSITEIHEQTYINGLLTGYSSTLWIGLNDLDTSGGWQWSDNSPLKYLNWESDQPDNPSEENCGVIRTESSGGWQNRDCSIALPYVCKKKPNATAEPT

[4] = target: T1, Endo180 on cells (Endo180-expressing …); assay: flow cytometry on HEK293-Endo180 cells

B1: Human IgG1 G7V with a wildtype γ1 heavy chain (antibody, V domains shown)
VH: EVQLVESGGGLVKPGGSLRLSCAASGFTFSSYSMNWVRQAPGKGLEWVANIKPDGSERHSVDSVKGRFTISRDNSKNSLYLQMNSLRAEDTAVYYCARPGAGRLDYWGQGTLVTVSS
VL: SSELTQDPAVSVALGQTVRITCQGDSLRSYYASWYQQKPGQAPVLVVYGKNNRPSGIPDRFSGSSSGNTASLTITGAQAEDEADYYCNSRDSSGNPWAFGGGTKVTVLG
notes: Naked antibody, made in HEK293-6E (lab scale) or CHO (1 L scale); also called IgG G7V; OMTX007-G7V
What does the source list for B1?
EC50 [1]: 0.4 nM; EC50 [2]: 0.4 nM; EC50 [3]: 0.5 nM; EC50 [4]: 1.5 nM
